Article PMC7214462

Legend:
[1] = system: LdCsm effector complex, wild type (Csm1/Cas10-Csm2-Csm3-Csm4-Csm5) (Lactobacillus delbrueckii subsp. bulgaricus ND04); experiment: EMSA; conditions: 5 nM 5'-32P S10-60 ssDNA in cleavage buffer (composition not in material; cOA assay buffer is 50 mM Tris-Cl pH 6.8 …)
[2] = system: LdCsm Csm3D34A (Lactobacillus delbrueckii subsp. bulgaricus ND04); experiment: EMSA; conditions: 100 nM effector, 500 nM PTR; 5 nM 5'-32P S10-60 ssDNA in cleavage buffer (composition not in material; cOA assay buffer is 50 mM Tris-Cl pH 6.8 …)

ACTATAGGGAGAATAGAATGCCCCCATTATACAATATCTACGTTTTAGATGACCCCCCCC / ACGAGAACUUCAAAGCUUAGAUACCCUGGAGG / AUAGAAUGCCCCCAUUAUACAAUAUCUACGUUUUAGAUGAAAAAAA [S10-60 ssDNA + S1 crRNA + S10 RNA (non-homologous)]
binding signal (relative to WT with non-homologous RNA) ([1]; 100 nM LdCsm, 400 nM S10 RNA, little binding, reference): 1

ACTATAGGGAGAATAGAATGCCCCCATTATACAATATCTACGTTTTAGATGACCCCCCCC / ACGAGAACUUCAAAGCUUAGAUACCCUGGAGG / GGUGUUAAGUCUGGUUUCCCUCCAGGGUAUCUAAGCUUUGAAA [S10-60 ssDNA + S1 crRNA + CTR+1]
binding signal (% of full activity) ([1]; 100 nM LdCsm, 500 nM CTR+1): 90

ACTATAGGGAGAATAGAATGCCCCCATTATACAATATCTACGTTTTAGATGACCCCCCCC / ACGAGAACUUCAAAGCUUAGAUACCCUGGAGG / GGUGUUAAGUCUGGUUUCCCUCCAGGGUAUCUAAGCUUUGAAAAAAAA [S10-60 ssDNA + S1 crRNA + CTR+6]
binding signal (fraction of CTR+6 complex) ([1]; 100 nM LdCsm, 500 nM CTR+6, reference): 1

ACTATAGGGAGAATAGAATGCCCCCATTATACAATATCTACGTTTTAGATGACCCCCCCC / ACGAGAACUUCAAAGCUUAGAUACCCUGGAGG / GGUGUUAAGUCUGGUUUCCCUCCAGGGUAUCUAAGCUUUGAAG [S10-60 ssDNA + S1 crRNA + NTR+1]
binding signal (% of full activity) ([1]; 100 nM LdCsm, 500 nM NTR+1): 70

ACTATAGGGAGAATAGAATGCCCCCATTATACAATATCTACGTTTTAGATGACCCCCCCC / ACGAGAACUUCAAAGCUUAGAUACCCUGGAGG / UGUUAAGUCUGGUUUCCCUCCAGGGUAUCUAAGCUUUGAA [S10-60 ssDNA + S1 crRNA + PTR (S1-40)]
binding signal (% of CTR-LdCsm) ([1]; 100 nM LdCsm, 500 nM PTR): 55
binding signal (fold vs non-homologous RNA) ([1]; 100 nM LdCsm, 500 nM PTR): 2
binding signal (fold vs non-homologous RNA) [2]: 3

ACTATAGGGAGAATAGAATGCCCCCATTATACAATATCTACGTTTTAGATGACCCCCCCC / ACGAGAACUUCAAAGCUUAGAUACCCUGGAGG / UGUUAAGUCUGGUUUCCCUCCAGGGUAUCUAAGCUUUGAAAAAAAA [S10-60 ssDNA + S1 crRNA + CTR (S1-46)]
binding signal ([1]; 25-100 nM effector, 500 nM CTR, reference): 100 % of WT
